Data from US20090099072A1 (LES LABORATOIRES SERVIER, published 2009).

Legend:
Bcl-2 = target: T1, Bcl-2 (UniProt P10415-1 1-211, limits assumed); experiment: fluorescence polarisation competition; tracer Bak BH3 carboxyfluorescein 15 nM, Bcl-2 1 µM
T1 construct: also called anti-apoptotic member of the Bcl-2 protein family
Method: (§1) The following reagents are mixed together in the order stated: [0089] a) competitor peptide at a final concentration of from 1 nM to 100 μM; [0090] b) fluorescent peptide ligand (Bak BH3 carboxyfluorescein) at a final concentration of 15 nM; [0091] c) anti-apoptotic member of the Bcl-2 protein family at a final concentration of 100 nM for Bcl-XL and of 1 μM for Bcl-2 and Bcl-W.
(§2) The mixture is then incubated for 30 minutes at ambient temperature and the fluorescence polarisation is determined on a Fusion apparatus (Packard) (excitation at 485 nm and reading at 530 nm). The values are given in mP (unit of fluorescence polarisation).

Bcl-XL = target: T2, Bcl-XL (UniProt Q07817-1 1-209); experiment: fluorescence polarisation competition; tracer Bak BH3 carboxyfluorescein 15 nM, Bcl-XL 100 nM
T2 construct: also called anti-apoptotic member of the Bcl-2 protein family
Method: as §1, §2

Bcl-W = target: T3, Bcl-W (UniProt Q92843-1 1-172, limits assumed); experiment: fluorescence polarisation competition; tracer Bak BH3 carboxyfluorescein 15 nM, Bcl-W 1 µM
T3 construct: also called anti-apoptotic member of the Bcl-2 protein family
T3 sequence (looked up): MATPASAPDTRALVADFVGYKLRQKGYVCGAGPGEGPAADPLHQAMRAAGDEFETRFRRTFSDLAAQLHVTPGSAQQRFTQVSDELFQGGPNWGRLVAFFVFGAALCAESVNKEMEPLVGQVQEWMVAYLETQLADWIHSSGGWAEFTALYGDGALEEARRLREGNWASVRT
Method: as §1, §2

T1 sequence (P10415 1-211 limits assumed): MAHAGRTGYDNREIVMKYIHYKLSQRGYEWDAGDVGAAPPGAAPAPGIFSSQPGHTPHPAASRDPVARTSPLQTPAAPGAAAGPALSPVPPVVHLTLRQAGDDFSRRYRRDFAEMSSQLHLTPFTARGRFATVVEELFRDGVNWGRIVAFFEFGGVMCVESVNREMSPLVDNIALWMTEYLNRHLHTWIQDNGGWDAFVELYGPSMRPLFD
T2 sequence (Q07817 1-209): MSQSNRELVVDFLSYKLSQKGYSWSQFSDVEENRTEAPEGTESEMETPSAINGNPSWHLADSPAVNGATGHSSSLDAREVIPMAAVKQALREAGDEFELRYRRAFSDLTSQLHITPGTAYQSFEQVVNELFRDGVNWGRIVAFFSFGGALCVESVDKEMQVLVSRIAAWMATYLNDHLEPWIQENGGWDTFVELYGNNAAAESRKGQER

B1: Beclin peptide, motif GTMENLSRRLKVTGDLFDIMSGQTDV of the Beclin protein (peptide)
peptide: GTMENLSRRLKVTGDLFDIMSGQTDV
- Ki (Bcl-2): 1800 nM
- Ki (Bcl-XL): 1150 nM
- Ki (Bcl-W): 7400 nM
